For test [1], the target named is T1, extracellular domain of mIFNgR2 (mouse).
T1 construct: also called mIFNgR2 ECD; mouse IFNgR2 extracellular domain
T1 chain: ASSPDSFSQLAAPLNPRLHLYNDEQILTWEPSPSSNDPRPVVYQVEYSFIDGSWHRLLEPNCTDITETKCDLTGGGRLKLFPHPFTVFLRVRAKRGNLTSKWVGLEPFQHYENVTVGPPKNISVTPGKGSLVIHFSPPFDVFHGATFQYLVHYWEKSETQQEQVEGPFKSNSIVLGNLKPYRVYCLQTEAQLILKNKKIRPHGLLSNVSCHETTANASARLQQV
The test can be described thus: flow cytometry, cross-reactivity. For orientation: Flow cytometry measures light scatter and fluorescence of single cells or particles in a stream.

Test [2] addresses T2, extracellular domain of hIFNgR2 (human, UniProt P38484 28-247).
T2 construct: also called hIFNgR2 ECD; hIFNgR2-ECD
T2 sequence: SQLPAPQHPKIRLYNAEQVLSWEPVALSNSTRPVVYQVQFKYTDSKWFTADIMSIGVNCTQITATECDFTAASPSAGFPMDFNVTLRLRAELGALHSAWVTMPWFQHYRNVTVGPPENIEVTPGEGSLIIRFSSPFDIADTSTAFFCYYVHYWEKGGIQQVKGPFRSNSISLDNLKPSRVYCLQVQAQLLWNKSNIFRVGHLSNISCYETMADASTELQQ
The test can be described thus: phage biopanning and periplasmic extract ELISA (PE-ELISA). As to the method:
Upon completion of the biopanning of Example 3, three 96-well plates of individual phage clones were isolated in order to perform periplasmic extract ELISA (PE-ELISA) on IFNgR2 coated plates to identify positive VHH binders that selectively bound IFNgR2. A 96-well plate was coated with IFNgR2 and PBS under the same conditions. Next, wells were blocked at 37° C. for 1 h. Then, 100 μl of extracted antibodies was added to each well and incubated for 1 h. Subsequently, 100 μl of anti-tag polyclonal antibody conjugated to HRP was added to each well and incubated at 37° C. for 1 h. Plates were developed with TMB substrate. The reaction was stopped by the addition of H2SO4. Absorbance at 450 nm was read on a microtiter plate reader. Antibodies with absorbance of the antigen-coated well at least threefold greater than PBS-coated control were considered to provide specific binding to IFNgR2. Positive clones were sequenced, and sequences analyzed to identify unique clonotypes
A general note: ELISA stands for enzyme-linked immunosorbent assay.

B1: DR928 (VHH)
VHH: QVQLVESGGGLVQAGGSLRLSCAASGRTFSNYRMGWFRQAPGKEREFVAAISRGGGTTLYADSVKGRFTISRDNAKNTVDLQMNRLKPEDTAVYFCAAGDFSTTWDEYNYWGQGTQVTVSS
For the molecule B1, the binding result in test [1] and in test [2] was “binds” in each case.

B2: DR950 (VHH)
VHH: QVQLVESGGGLVQAGGSLRLSCAASGLTTSSAALAWFRQAPGKERELDPTITSGGGSTYYADSVKGRFTISKDNAKNTLYLQMSSLKPEDTAVYYCAARFYSTTYYYREHEYSDWGQGTQVTVSS
As to B2, the binding result in test [1] and in test [2] was “binds” each time.

B3: DR940 (VHH)
VHH: EVQLVESGGRLVQTGGSLRLSCAASGRTFSNYAMGWFRQAPGKEREFVAAISWYSGNTYYADSVKGRFTISRDNAKNTMYLQMNSLKPEDTAVYYCAANQIATMISVGDYWGQGTLVTVSS
With B3, the binding result in test [1] and in test [2] was “binds” in each case.

B4: DR938 (VHH)
VHH: QVQLVESGGGLVQPGGSLRLSCTASGRPRTTYAMGWFRQAPGKEREIVAAISKAGGSTYVADSAKGRFAISKDNAKNTVYLQMNSLKPEDTAVYYCAARAGFAAQIFEYDYWGQGTLVTVSS
Take B4: the binding result in test [1] and in test [2] was “binds” throughout.

B5: DR954 (VHH)
VHH: QVQLVESGGGLVQAGGSLRLSCAAARRTLHNFAMAWFRQAPGKEREFVAAISKGGGSADYADSVKGRFTISRDNAKNTVYLQMNSLKPEDTAVYYCAANDLASYSDSSYTSTSRYDYWGQGTQVTVSS
As to B5, the binding result in test [1] and in test [2] was “binds” throughout.

B6: DR956 (VHH)
VHH: EVQLVESGGGLVQAGGSLRLSCAASGRTFSSLAMAWFRQAPGKEREFVAATTILGGSADYGDPVKGRFTISRDNAKNTVYLQMNSLKPEDTAVYYCTGRRPAPSDNYWSPASYAYWGQGTQVTVSS
As to B6, the binding result in test [1] and in test [2] was “binds” throughout.

B7: DR952 (VHH)
VHH: QVQLVESGGGLVQAGGFLRLSCAASGRTFSSLAMAWFRQAPGKEREFVAAISRSGGSTDYADSVKGRFTISRDNAKSTLYLQMSSLKPEDTAVYYCAARDYSTLQYYNEYEYSDWGQGTLVTVSS
As for B7, the binding result in test [1] and in test [2] was “binds” in each case.

B8: DR927 (VHH)
VHH: QVQLVESGGGLVQAGGSLRLSCAASGRTFTSYAMNWFRQAPGKEREFVAAISWSSGNTYVADSVKGRFAISRDKAKNTMYLQMNSLAPEDTAVYYCAATTIATMSDEYTYWGQGTQVTVSS
Take B8: the binding result in test [1] and in test [2] was “binds” throughout.

B9: DR946 (VHH)
VHH: QVQLVESGGGLVQPGESLRLSCAASGPFTRYAMGWFRQAPGKEREFVAAISWSSGNTYYVDSVKGRFTISRDNAKNTMYLQMNSLKPEDTAVYYCAANEVATMSGPDDYWGQGTQVTVSS
For the molecule B9, the binding result in test [1] and in test [2] was “binds” throughout.

B10: DR939 (VHH)
VHH: EVQLVESGGGLVQAGGSMRLSCANSGRTFGTYAMGWFRQSPGKERERVASIDRDGSMSYYADSVKGRFTISGDNAKNTVYLQMNSLKPEDTAVYYCAASRRAVISLQTVDYWGQGTQVTVSS
For B10, the binding result in test [2] is “binds”.

B11: DR947 (VHH)
VHH: QVQLVESGGGLVQAGGSLRLSCAASGGSFGRYTMGWYRQAPGKEREFVAVISWSGTNTYYADSVKGRFTISRDNAKNTMYLQMNDLKPEDTAVYYCAARETYYSHWDERMEYDYWGQGTQVTVSS
In the case of B11, the binding result in test [1] and in test [2] was “binds” each time.

B12: DR944 (VHH)
VHH: QVQLVESGGGLVQAGDSLRLSCAASGRTFTFSTHNMGWFRQAPGKEREFVGGIMWTSRASYADSVKGRFTVSRDNAKNTVYLQMNSLKPEDTAVYYCAAAWYGNSGASYDYWGQGTQVTVSS
Take B12: the binding result in test [1] and in test [2] was “binds” throughout.

B13: DR955 (VHH)
VHH: QVQLVESGGGLVQTGGSLRLSCAASGRTFSSYAMAWFRQAPGKEREFVAAISILGGSADYEDSVQGRFTISRDNAKNTMYLQMNSLKPEDTAVYYCAARRPAPSDSYWSSTSYAYWGQGTLVTVSS
On to B13, for which the binding result in test [1] and in test [2] was “binds” throughout.

B14: DR942 (VHH)
VHH: QVQLVESGGGLVQAGGSLRLSCVASGRTFTGYAMGWFRQAPGKEREFVAVITWSGATTYYSASVKGRFTLSRDNAKNTVYLQMNSLKSEDTAVYYCAIRIRDGVSPENPNEYGYWGQGTQVTVSS
Turning to B14, the binding result in test [1] and in test [2] was “binds” in each case.

B15: DR941 (VHH)
VHH: QVQLVESGGGLVEAGGSLRLACAASGSIFRLNLMGWYRQAPGKQRELVAHVGTTGNTAYADSVKGRFTISKDDAKNMVFLQMNSLKPEDTAVYYCYADRWGQFSWGQGTQVTVSS
Turning to B15, the binding result in test [1] and in test [2] was “binds” in each case.

B16: DR949 (VHH)
VHH: QVQLVESGGGLVQAGGSLRLSCAASESILRFNVMSWLRQAPGKQRELVAVITSGGSTNYADSVKGRFTISRDNAKNTVYLQMNSLKPEDTAVYYCAADESGQYYWGQGTQVTVSS
B16: the binding result in test [1] and in test [2] was “binds” each time.

B17: DR951 (VHH)
VHH: QVQLVESGGGLVQAGGSLRLSCAASGRTFGTSFGSLSMGWFRQAPGKEREFVAAISRNIGRTYYADSVKDRFTISRDNAKNTASLQMNSLEPEDTAVYNCAATNSYDDLRRSYAYDYWGQGTQVTVSS
Regarding B17, the binding result in test [1] and in test [2] was “binds” in each case.

B18: DR943 (VHH)
VHH: QVQLVESGGGLVQAGGSLRLSCVASGRTVGYGMAWFRQAPGKQRDVVAAITWSGTSTYYPDSVKGRFTISRDNAKNTMYLQMSSLKPEDTAVYYCAAGSRRRVGVDVGGYDYWGQGTQVTVSS
Turning to B18, the binding result in test [1] and in test [2] was “binds” in each case.

B19: DR936 (VHH)
VHH: EVQLVESGGGLVQAGGSLRLSCAASGRTFSSVAMAWFRQAPGKEREFVSAISSGGGSTDYADSVKGRFTISKDNAKNTMYLQMDSLKPEDTAVYYCAARDYSSRRYYQSRYEYDLWGLGTQVTVSS
For B19, the binding result in test [1] and in test [2] was “binds” each time.

B20: DR929 (VHH)
VHH: QVQLVESGGGLVQAGGSLRLSCVASGRTFSSYAMGWFRQTPGKEREFVSAISRGGGSTDYADSVKGRFTISRDNAKNTVYLQMNNLKSEDTAVYYCALRAYSGRYYQFLEYDYWGQGTQVTVSS
For B20, the binding result in test [1] and in test [2] was “binds” throughout.

B21: DR945 (VHH)
VHH: LVESGGGLVQLVQAGGSLRLSCAASGRTFSGYNMGWFRQAPGKEREFVAAIAWAGSRTYYTDSVKGRFTISRDNAKNTMYLQMNTLRPEDTAVYYCAAHDETYYRLDRVDLYTHWGQGTQVTVSS
Take B21: the binding result in test [1] and in test [2] was “binds” in each case.

B22: DR948 (VHH)
VHH: QVQLVESGGGLVQAGDSLRLSCVASGSIDSSYYVSWFRQAPGKERDLVAAINWGDSRTAYADSVKGRFTISRDNAKNTVYLQMHSLRPNDTAVYYCASRIGLGGPVVAAPTRYPYWGQGTLVTVSS
Regarding B22, the binding result in test [1] and in test [2] was “binds” throughout.

B23: DR937 (VHH)
VHH: QVQLVESGGGLVQPGGSLRLSCAASGRTFRSYSMGWFRQAPGKEREFVAAISWYSGTTYYADPVKGRFTISRDDAKNTLYLQMNSLKPEDTAVYYCAANEIATMESSNDYWGQGTQVTVSS
For the molecule B23, the binding result in test [1] and in test [2] was “binds” each time.

B24: DR953 (VHH)
VHH: QVQLVESGGGLVQAGDSLRLSCAASGPTFSTYAMAWFRQAPGKEREFVAAITQSGRTTYYEDSVKGRFTISKDNAKNTLYLQMNSLQPEDTAVYYCAARDLWSDSPDDWRIYSFWGQGTQVTVSS
On to B24, for which the binding result in test [1] and in test [2] was “binds” each time.
